Measurements taken from patent US9365599B2, “N3S1 chelator-folate derivatives, preparation method thereof and composition for diagnosis or treatment of cancer containing the same as an active ingredient” (KOREA ATOMIC ENERGY RESEARCH INSTITUTE, priority 2012, dated 2016).
Blank lines part the entries; values can stand above or below the compound they belong to.

Assays:
folate-receptor (FR) = target: T1, folate-receptor (FR) (Homo sapiens, UniProt P15328); assay: Competitive binding assay on FR-positive KB cells with 99mTc-labeled folate radioligand
T1 construct: FR-positive KB tumor cells (human oral epidermoid carcinoma) which overexpress FR; endogenous in cells; host or cells: KB cells (human oral epidermoid carcinoma)
T1 sequence (P15328 25-234): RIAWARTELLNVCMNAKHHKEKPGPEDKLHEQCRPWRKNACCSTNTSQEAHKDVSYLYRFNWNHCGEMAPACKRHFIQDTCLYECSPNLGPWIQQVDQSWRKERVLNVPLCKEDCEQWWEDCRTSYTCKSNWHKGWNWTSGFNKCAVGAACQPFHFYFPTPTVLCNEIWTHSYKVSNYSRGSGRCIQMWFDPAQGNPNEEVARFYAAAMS
Experimental: After that, the cells were washed with an acid wash buffer (50 mM glysine-HCL buffer, pH 2.4), to remove membrane bound radioligand, and the supernatant was collected to measure the membrane bound fraction of radioactivity. Cells were lysed with 1N NaOH, transferred and measured the internalised fraction of radioactivity with γ-counter. Counted radioactivity in membrane bound fraction and internalized fraction could be ascribed to the sum of cell uptake. The cell uptake data was expressed as % cell uptake (cell uptake/total added activity). […] Cells were harvested with typsin and washed with PBS buffer, and 8×10^5 cells were seeded in 12-well plates. […] After that, the cells were collected to measure the radioactivity with γ-counter.

[1] = tested on: FR-positive KB tumor cells; assay: Time-dependent cell uptake (membrane bound and internalized fraction) in FR-positive KB cells; format: cell-based, human; conditions: 37° C., 10-180 min
Experimental: FR-positive KB tumor cells (human oral epidermoid carcinoma) which overexpress FR were grown in T-flask until 80%-90% confluence at 37° C. and 5% CO2 with folid-acid free (deficient) RPMI 1640 medium (FFRPMI) containing 10% heat-inactivated fetal bovine serum (FBS). […] Cells were rinsed twice with ice-cold PBS and pre-incubated with 850 μl of fresh FFRPMI without FBS at 37° C. for 30 min. […] After incubation, the well plates were washed twice with ice-cold PBS.
After that, the cells were washed with an acid wash buffer (50 mM glysine-HCL buffer, pH 2.4), to remove membrane bound radioligand, and the supernatant was collected to measure the membrane bound fraction of radioactivity. Cells were lysed with 1N NaOH, transferred and measured the internalised fraction of radioactivity with γ-counter. Counted radioactivity in membrane bound fraction and internalized fraction could be ascribed to the sum of cell uptake. The cell uptake data was expressed as % cell uptake (cell uptake/total added activity). Each data represents a result of the […] of triplicate wells. The affinity of PKCK-fol was determined using competitive binding assay. ^99mTc-PKC-fol was used as radioligand in this assay. Cells were harvested with typsin and washed with PBS buffer, and 8×10^5 cells were seeded in 12-well plates. […] After that, the cells were collected to measure the radioactivity with γ-counter. […]

in vivo = assay: in vivo; design: species or system mice; conditions: female, nude, mouse, iv, 370 kBq, total radioactivity
Experimental: (§1) The stock solution of the ^99mTc-labeled PKCK-fol-OH used in the animal studies was prepared for 10^−8 mol/ml with an activity of 370 MBq. Solutions for injection were prepared by the dilution of the stock solution to obtain a desired volumetric activity of 3.7 MBq/ml. The biodistribution experiments for the ^99mTc-labeled PKCK-fol-OH were performed with KB-bearing female nude mice (provided by OrientBio, Republic of Korea). […] After tumor was allowed to grow for 2-3 weeks, the mice were administered 370 kBq (10 uCi)/100 μl intravenously. At 30 min, 1 hr, 3 hr and 24 hr, the animals were sacrificed.
(§2) Table 1 below lists biodistribution results measured at 30 min, 1 hr, 3 hr and 24 hr after injection.

KB tumor xenograft = assay: in vivo; design: species or system mice; conditions: mouse, iv
Experimental: as §1, §2

- IC50 (folate-receptor (FR)): 160 nM
Structure (SMILES): NCCCCC(NC(=O)C1CCCN1)C(=O)NC(CS)C(=O)NCCCCC(NC(=O)CCC(NC(=O)c1ccc(NCC2=NC3C(=O)NC(N)=NC3N=C2)cc1)C(=O)O)C(=O)O (stereo not shown) [Example 1, PKCK-Fol-OH]

Structure (SMILES): NCCCC[C@H](NC(=O)[C@@H]1CCCN1)C(=O)N[C@@H](CS)C(=O)NCCCC[C@H](NC(=O)CC[C@H](NC(=O)c1ccc(NCc2cnc3nc(N)[nH]c(=O)c3n2)cc1)C(=O)O)C(=O)O (99mTc complex, metal not drawn) [Example 10]
- cell affinity and internalization rate [1]: increased time dependently
- tissue uptake at 0.5 h (in vivo; Blood uptake): 0.64 ± 0.26 %ID/g
- tissue uptake at 1 h (in vivo; Blood uptake): 0.36 ± 0.06 %ID/g
- tissue uptake at 3 h (in vivo; Blood uptake): 0.18 ± 0.05 %ID/g
- tissue uptake at 24 h (in vivo; Blood uptake): 0.06 ± 0.02 %ID/g
- tissue uptake at 0.5 h (in vivo; Heart uptake): 2.25 ± 0.47 %ID/g
- tissue uptake at 1 h (in vivo; Heart uptake): 1.73 ± 0.27 %ID/g
- tissue uptake at 3 h (in vivo; Heart uptake): 1.03 ± 0.32 %ID/g
- tissue uptake at 24 h (in vivo; Heart uptake): 0.1 ± 0.06 %ID/g
- tissue uptake at 0.5 h (in vivo; Kidney uptake): 76.5 ± 5.04 %ID/g
- tissue uptake at 1 h (in vivo; Kidney uptake): 77.2 ± 5.43 %ID/g
- tissue uptake at 3 h (in vivo; Kidney uptake): 41.5 ± 12.1 %ID/g
- tissue uptake at 24 h (in vivo; Kidney uptake): 7.49 ± 1.9 %ID/g
- tissue uptake at 0.5 h (in vivo; Lg Int uptake): 2.43 ± 1.38 %ID/g
- tissue uptake at 1 h (in vivo; Lg Int uptake): 3.43 ± 0.73 %ID/g
- tissue uptake at 3 h (in vivo; Lg Int uptake): 1.48 ± 0.64 %ID/g
- tissue uptake at 24 h (in vivo; Lg Int uptake): 1.38 ± 0.86 %ID/g
- tissue uptake at 0.5 h (in vivo; Liver uptake): 7.21 ± 1.58 %ID/g
- tissue uptake at 1 h (in vivo; Liver uptake): 5.42 ± 1.85 %ID/g
- tissue uptake at 3 h (in vivo; Liver uptake): 2.83 ± 0.6 %ID/g
- tissue uptake at 24 h (in vivo; Liver uptake): 1.09 ± 0.07 %ID/g
- tissue uptake at 0.5 h (in vivo; Lung uptake): 1.7 ± 0.35 %ID/g
- tissue uptake at 1 h (in vivo; Lung uptake): 1.45 ± 0.33 %ID/g
- tissue uptake at 3 h (in vivo; Lung uptake): 0.63 ± 0.26 %ID/g
- tissue uptake at 24 h (in vivo; Lung uptake): 0.12 ± 0.06 %ID/g
- tissue uptake at 0.5 h (in vivo; Sm Int uptake): 0.93 ± 0.54 %ID/g
- tissue uptake at 1 h (in vivo; Sm Int uptake): 0.43 ± 0.05 %ID/g
- tissue uptake at 3 h (in vivo; Sm Int uptake): 0.27 ± 0.12 %ID/g
- tissue uptake at 24 h (in vivo; Sm Int uptake): 0.1 ± 0.05 %ID/g
- tissue uptake at 0.5 h (in vivo; Spleen uptake): 0.47 ± 0.13 %ID/g
- tissue uptake at 1 h (in vivo; Spleen uptake): 0.36 ± 0.03 %ID/g
- tissue uptake at 3 h (in vivo; Spleen uptake): 0.3 ± 0.07 %ID/g
- tissue uptake at 24 h (in vivo; Spleen uptake): 0.1 ± 0.03 %ID/g
- tissue uptake at 0.5 h (in vivo; Stomach uptake): 1.92 ± 0.26 %ID/g
- tissue uptake at 1 h (in vivo; Stomach uptake): 1.2 ± 0.05 %ID/g
- tissue uptake at 3 h (in vivo; Stomach uptake): 0.55 ± 0.16 %ID/g
- tissue uptake at 24 h (in vivo; Stomach uptake): 0.13 ± 0.04 %ID/g
- tissue uptake at 0.5 h (in vivo; Tumor uptake): 2.6 ± 0.53 %ID/g
- tissue uptake at 1 h (in vivo; Tumor uptake): 2.96 ± 0.51 %ID/g
- tissue uptake at 3 h (in vivo; Tumor uptake): 2.24 ± 0.27 %ID/g
- tissue uptake at 24 h (in vivo; Tumor uptake): 0.91 ± 0.28 %ID/g
- tissue to tissue ratio at 0.5 h (in vivo; Tumor/blood ratio): 4.38 ± 0.92
- tissue to tissue ratio at 1 h (in vivo; Tumor/blood ratio): 8.35 ± 1.12
- tissue to tissue ratio at 3 h (in vivo; Tumor/blood ratio): 13.2 ± 2.78
- tissue to tissue ratio at 24 h (in vivo; Tumor/blood ratio): 15.2 ± 4.36
- tissue to tissue ratio at 0.5 h (in vivo; Tumor/kidney ratio): 0.03 ± 0.01
- tissue to tissue ratio at 1 h (in vivo; Tumor/kidney ratio): 0.04 ± 0.01
- tissue to tissue ratio at 3 h (in vivo; Tumor/kidney ratio): 0.06 ± 0.01
- tissue to tissue ratio at 24 h (in vivo; Tumor/kidney ratio): 0.12 ± 0.02
- tissue to tissue ratio at 0.5 h (in vivo; Tumor/liver ratio): 0.38 ± 0.14
- tissue to tissue ratio at 1 h (in vivo; Tumor/liver ratio): 0.58 ± 0.17
- tissue to tissue ratio at 3 h (in vivo; Tumor/liver ratio): 0.82 ± 0.2
- tissue to tissue ratio at 24 h (in vivo; Tumor/liver ratio): 0.83 ± 0.24
- uptake in other organs (lung, heart, stomach and intestines) (KB tumor xenograft): kept at a low level
